According to article PMC7763846:

Target: T1, recombinant mouse TNF-α (mouse), P06804
T1 chain: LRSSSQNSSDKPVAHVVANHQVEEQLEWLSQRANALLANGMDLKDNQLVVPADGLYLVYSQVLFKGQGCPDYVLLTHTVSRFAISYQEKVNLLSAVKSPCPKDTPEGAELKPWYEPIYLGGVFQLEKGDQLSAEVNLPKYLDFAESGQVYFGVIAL
Test: cross-linking; 100 ng recombinant TNF-α incubated 1 h at 37 °C with different concentrations of DMSO (or without: cross-linked control), cross-linked with 4.8 mM BS3 for 30 min at room temperature, stopped with 1/10 volume 1 M Tris-HCl pH 7.5; SDS-PAGE and Western blot with anti-TNF-α antibody
Conditions: remark: other sources report otherwise

stoichiometry N: 3
B1: recombinant mouse TNF-α, P06804 80-235 (ligand)
chain: T1 chain
